Reference: paper PMC5605233, “Crystal structure of the N-terminal domain of human Timeless and its interaction with Tipin” (Nucleic Acids Research, 2017)

Columns and labels:
[1] = target: human Tipin, N-terminal 10xHis tag, co-expressed with Timeless (human) (UniProt Q9BVW5); test: native MS + SEC-MALS; purified Timeless-Tipin complex; nanoESI-MS in 0.20 M ammonium acetate pH 7.0, 5-10 μM; SEC-MALLS
[2] = target: the molecule itself; test: SEC-MALS; Superdex 200 Increase 10/300, 25°C, 1-2 mg/ml (100 μl injection), 25 mM Hepes 7.2, 150 mM KCl, 50 mM Arginine, 50 mM Glutamate

Sequence of human Tipin, N-terminal 10xHis tag, co-expressed with Timeless (human) (Q9BVW5 whole entry): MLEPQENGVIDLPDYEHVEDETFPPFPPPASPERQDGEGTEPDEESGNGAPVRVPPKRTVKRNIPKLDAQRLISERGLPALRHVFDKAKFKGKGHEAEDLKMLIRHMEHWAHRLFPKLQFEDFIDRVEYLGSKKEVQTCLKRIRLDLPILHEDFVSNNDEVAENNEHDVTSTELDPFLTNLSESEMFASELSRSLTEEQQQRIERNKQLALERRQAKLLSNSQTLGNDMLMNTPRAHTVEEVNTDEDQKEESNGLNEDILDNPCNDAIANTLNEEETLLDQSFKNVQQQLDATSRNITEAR

human Timeless, full-length, N-terminal twin-strep tag, co-expressed with Tipin (from UniProt Q9UNS1 1-1208) (natural protein)
stoichiometry N (Timeless:Tipin) [1]: 1

B1: TimN(Δ239-330): Timeless 1-463 with residues 239-330 replaced by the linker GSTGST (domain or fragment, human)
chain: MDLHMMNCELLATCSALGYLEGDTYHKEPDCLESVKDLIRYLRHEDETRDVRQQLGAAQILQSDLLPILTQHHQDKPLFDAVIRLMVNLTQPALLCFGNLPKEPSFRHHFLQVLTYLQAYKEAFASEKAFGVLSETLYELLQLGWEERQEEDNLLIERILLLVRNILHVPADLDQEKKIDDDASAHDQLLWAIHLSGLDDLLLFLASSSAEEQWSLHVLEIVSLMFRDQNPEQLAGVGGSTGSTQRRSALNVRLFLRDFCSEFLENCYNRLMGSVKDHLLREKAQQHDETYYMWALAFFMAFNRAASFRPGLVSETLSVRTFHFIEQNLTNYYEMMLTDRKEAASWARRMHLALKAYQELLATVNEMDISPDEAVRE
notes: human Timeless, residues 1-238; 6-residue linker in place of residues 239-330; human Timeless, residues 331-463; Dimer in solution and in the crystal; the authors think the dimer is likely an artifact of construct design; also called Timeless(1-463_(Δ239-330)); source: E. coli Rosetta2(DE3), purified (Ni-NTA, HiTrap Q, SEC)
stoichiometry N [2]: 2
